The target of experiment [1] is human GLP-1 receptor (GLP-1R) (human, UniProt P43220 24-463). The experiment is described as follows: cell-based or functional assay.
Experiment [2] concerns the target human glucagon receptor (GCGR) (human, UniProt P47871 26-477). The experiment is described as follows: cell-based or functional assay.

Where no end group is shown, it is not given here. [ ]: non-standard residue; d: D form. Aib = CC(C)(N)C(=O)O

Chain of human GLP-1 receptor (GLP-1R) (P43220 24-463): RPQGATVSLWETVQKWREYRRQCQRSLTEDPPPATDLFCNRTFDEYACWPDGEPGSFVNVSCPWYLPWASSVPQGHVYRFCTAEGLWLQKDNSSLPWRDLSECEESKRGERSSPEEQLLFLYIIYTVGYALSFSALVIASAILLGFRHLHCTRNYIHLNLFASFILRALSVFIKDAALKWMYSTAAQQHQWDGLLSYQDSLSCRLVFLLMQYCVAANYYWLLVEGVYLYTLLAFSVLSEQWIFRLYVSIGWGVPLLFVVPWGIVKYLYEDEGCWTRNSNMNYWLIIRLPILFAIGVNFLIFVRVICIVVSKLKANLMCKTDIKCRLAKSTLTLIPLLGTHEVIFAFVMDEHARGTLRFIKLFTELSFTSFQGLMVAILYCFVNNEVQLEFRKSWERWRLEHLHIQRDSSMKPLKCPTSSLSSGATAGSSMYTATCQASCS

B1: Compound A100 (peptide)
peptide: YSHGTFTSDYSKYLD[Aib]KRAQEFV[Aib]WLEDE-OH
modifications: N-terminus assumed
SMILES: CC(C)C[C@H](NC(=O)[C@H](Cc1ccc(O)cc1)NC(=O)[C@H](CCCCN)NC(=O)[C@H](CO)NC(=O)[C@H](Cc1ccc(O)cc1)NC(=O)[C@H](CC(=O)O)NC(=O)[C@H](CO)NC(=O)[C@@H](NC(=O)[C@H](Cc1ccccc1)NC(=O)[C@@H](NC(=O)CNC(=O)[C@H](Cc1c[nH]cn1)NC(=O)[C@H](CO)NC(=O)[C@@H](N)Cc1ccc(O)cc1)[C@@H](C)O)[C@@H](C)O)C(=O)N[C@@H](CC(=O)O)C(=O)NC(C)(C)C(=O)N[C@@H](CCCCN)C(=O)N[C@@H](CCCNC(=N)N)C(=O)N[C@@H](C)C(=O)N[C@@H](CCC(N)=O)C(=O)N[C@@H](CCC(=O)O)C(=O)N[C@@H](Cc1ccccc1)C(=O)N[C@H](C(=O)NC(C)(C)C(=O)N[C@@H](Cc1c[nH]c2ccccc12)C(=O)N[C@@H](CC(C)C)C(=O)N[C@@H](CCC(=O)O)C(=O)N[C@@H](CC(=O)O)C(=O)N[C@@H](CCC(=O)O)C(=O)O)C(C)C
For the molecule B1, in experiment [1], the “hGLP1 pEC50 (cAMP) mean (n = 3): 11 point curve starting at 1 nM” value (“hGLP1 pEC50 (cAMP) mean” for short) is less than 9 pEC50. In experiment [2], the “hGCGR pEC50 (cAMP) mean (n = 3): 11 point curve starting at 1 nM” value (from here on “hGCGR pEC50 (cAMP) mean”) was 12.6 pEC50.

B2: Compound A99 (peptide)
peptide: YSHGTFTSDYSKYLD[Aib]KRAQEFV[Aib]WLEDEPSSGAPPPS-OH
modifications: N-terminus assumed
SMILES: CC(C)C[C@H](NC(=O)[C@H](Cc1ccc(O)cc1)NC(=O)[C@H](CCCCN)NC(=O)[C@H](CO)NC(=O)[C@H](Cc1ccc(O)cc1)NC(=O)[C@H](CC(=O)O)NC(=O)[C@H](CO)NC(=O)[C@@H](NC(=O)[C@H](Cc1ccccc1)NC(=O)[C@@H](NC(=O)CNC(=O)[C@H](Cc1c[nH]cn1)NC(=O)[C@H](CO)NC(=O)[C@@H](N)Cc1ccc(O)cc1)[C@@H](C)O)[C@@H](C)O)C(=O)N[C@@H](CC(=O)O)C(=O)NC(C)(C)C(=O)N[C@@H](CCCCN)C(=O)N[C@@H](CCCNC(=N)N)C(=O)N[C@@H](C)C(=O)N[C@@H](CCC(N)=O)C(=O)N[C@@H](CCC(=O)O)C(=O)N[C@@H](Cc1ccccc1)C(=O)N[C@H](C(=O)NC(C)(C)C(=O)N[C@@H](Cc1c[nH]c2ccccc12)C(=O)N[C@@H](CC(C)C)C(=O)N[C@@H](CCC(=O)O)C(=O)N[C@@H](CC(=O)O)C(=O)N[C@@H](CCC(=O)O)C(=O)N1CCC[C@H]1C(=O)N[C@@H](CO)C(=O)N[C@@H](CO)C(=O)NCC(=O)N[C@@H](C)C(=O)N1CCC[C@H]1C(=O)N1CCC[C@H]1C(=O)N1CCC[C@H]1C(=O)N[C@@H](CO)C(=O)O)C(C)C
B2: the “hGLP1 pEC50 (cAMP) mean” value in experiment [1] was less than 9 pEC50. Further, the “hGCGR pEC50 (cAMP) mean” value in experiment [2] was 12.5 pEC50.

B3: Compound A102 (peptide)
peptide: YSHGTFTSDYSKWLD[Aib]KRAQEFVKWLEDE-OH
modifications: N-terminus assumed
SMILES: CC(C)C[C@H](NC(=O)[C@H](Cc1c[nH]c2ccccc12)NC(=O)[C@H](CCCCN)NC(=O)[C@@H](NC(=O)[C@H](Cc1ccccc1)NC(=O)[C@H](CCC(=O)O)NC(=O)[C@H](CCC(N)=O)NC(=O)[C@H](C)NC(=O)[C@H](CCCNC(=N)N)NC(=O)[C@H](CCCCN)NC(=O)C(C)(C)NC(=O)[C@H](CC(=O)O)NC(=O)[C@H](CC(C)C)NC(=O)[C@H](Cc1c[nH]c2ccccc12)NC(=O)[C@H](CCCCN)NC(=O)[C@H](CO)NC(=O)[C@H](Cc1ccc(O)cc1)NC(=O)[C@H](CC(=O)O)NC(=O)[C@H](CO)NC(=O)[C@@H](NC(=O)[C@H](Cc1ccccc1)NC(=O)[C@@H](NC(=O)CNC(=O)[C@H](Cc1c[nH]cn1)NC(=O)[C@H](CO)NC(=O)[C@@H](N)Cc1ccc(O)cc1)[C@@H](C)O)[C@@H](C)O)C(C)C)C(=O)N[C@@H](CCC(=O)O)C(=O)N[C@@H](CC(=O)O)C(=O)N[C@@H](CCC(=O)O)C(=O)O
For the molecule B3, the “hGLP1 pEC50 (cAMP) mean” value in experiment [1] is less than 9 pEC50. Also, in experiment [2], the “hGCGR pEC50 (cAMP) mean” value came to 12.4 pEC50.

B4: Compound A103 (peptide)
peptide: YSHGTFTSDYSKYLD[Aib]ARAQEFV[Aib]WLEDEPSSGAPPPS-OH
modifications: N-terminus assumed
SMILES: CC(C)C[C@H](NC(=O)[C@H](Cc1ccc(O)cc1)NC(=O)[C@H](CCCCN)NC(=O)[C@H](CO)NC(=O)[C@H](Cc1ccc(O)cc1)NC(=O)[C@H](CC(=O)O)NC(=O)[C@H](CO)NC(=O)[C@@H](NC(=O)[C@H](Cc1ccccc1)NC(=O)[C@@H](NC(=O)CNC(=O)[C@H](Cc1c[nH]cn1)NC(=O)[C@H](CO)NC(=O)[C@@H](N)Cc1ccc(O)cc1)[C@@H](C)O)[C@@H](C)O)C(=O)N[C@@H](CC(=O)O)C(=O)NC(C)(C)C(=O)N[C@@H](C)C(=O)N[C@@H](CCCNC(=N)N)C(=O)N[C@@H](C)C(=O)N[C@@H](CCC(N)=O)C(=O)N[C@@H](CCC(=O)O)C(=O)N[C@@H](Cc1ccccc1)C(=O)N[C@H](C(=O)NC(C)(C)C(=O)N[C@@H](Cc1c[nH]c2ccccc12)C(=O)N[C@@H](CC(C)C)C(=O)N[C@@H](CCC(=O)O)C(=O)N[C@@H](CC(=O)O)C(=O)N[C@@H](CCC(=O)O)C(=O)N1CCC[C@H]1C(=O)N[C@@H](CO)C(=O)N[C@@H](CO)C(=O)NCC(=O)N[C@@H](C)C(=O)N1CCC[C@H]1C(=O)N1CCC[C@H]1C(=O)N1CCC[C@H]1C(=O)N[C@@H](CO)C(=O)O)C(C)C
As to B4, the “hGLP1 pEC50 (cAMP) mean” value in experiment [1] is less than 9 pEC50. In experiment [2], the “hGCGR pEC50 (cAMP) mean” value is 11.9 pEC50.

B5: Compound A101 (peptide)
peptide: YGHGTFTSDHSKYLD[Aib]KRAQEFVKWLEDE-OH
modifications: N-terminus assumed
SMILES: CC(C)C[C@H](NC(=O)[C@H](Cc1c[nH]c2ccccc12)NC(=O)[C@H](CCCCN)NC(=O)[C@@H](NC(=O)[C@H](Cc1ccccc1)NC(=O)[C@H](CCC(=O)O)NC(=O)[C@H](CCC(N)=O)NC(=O)[C@H](C)NC(=O)[C@H](CCCNC(=N)N)NC(=O)[C@H](CCCCN)NC(=O)C(C)(C)NC(=O)[C@H](CC(=O)O)NC(=O)[C@H](CC(C)C)NC(=O)[C@H](Cc1ccc(O)cc1)NC(=O)[C@H](CCCCN)NC(=O)[C@H](CO)NC(=O)[C@H](Cc1c[nH]cn1)NC(=O)[C@H](CC(=O)O)NC(=O)[C@H](CO)NC(=O)[C@@H](NC(=O)[C@H](Cc1ccccc1)NC(=O)[C@@H](NC(=O)CNC(=O)[C@H](Cc1c[nH]cn1)NC(=O)CNC(=O)[C@@H](N)Cc1ccc(O)cc1)[C@@H](C)O)[C@@H](C)O)C(C)C)C(=O)N[C@@H](CCC(=O)O)C(=O)N[C@@H](CC(=O)O)C(=O)N[C@@H](CCC(=O)O)C(=O)O
For B5, in experiment [1], the “hGLP1 pEC50 (cAMP) mean” value is less than 9 pEC50. In experiment [2], the “hGCGR pEC50 (cAMP) mean” value came out at 11.3 pEC50.
